This note sets out measurements from patent publication US20100216161.

Where two headings read alike, the source gives them in different places.

The subject of series [1] is NS5AB peptide substrate NH2-EDVV-(alpha)Abu-CSMSY-COOH.
Series [2] has as its target T1, FITC-NS5AB-1 peptide substrate FITC-Ahx-EDVV-(alpha)Abu-CSMSYTKK-NH2.
T1 chain: XEDVVXCSMSYTKK

Series [3] concerns the target T2, NS5AB peptide substrate NH2-EDVV-(alpha)Abu-CSMSY-COOH.
T2 chain: EDVVXCSMSY

Series [4] addresses T3, NS5AB-EDANS peptide substrate NH2-EDVV-(alpha)Abu-CSMSYT-Asp(EDANS)-KKK-COOH.
T3 chain: EDVVXCSMSYTDKKK

For orientation: Km means the concentration of substrate that gives half-maximal velocity. The term kcat/Km denotes the second-order rate constant that governs catalysis at low substrate concentration. For “HCV NS3 protease domain (residues Ala1-Ser181 of HCV NS3 protease, C-terminal hexa-histidine tag)”, in series [1], the Km stood at 25 µM and the kcat/Km was determined as 30000 M⁻¹ s⁻¹.

B1: NS3•4A protein with an N-terminal histidine tag (protein)
chain: MSHHHHHHAMAPITAYAQQTRGLLGCIITSLTGRDKNQVEGEVQIVSTATQTFLATCINGVCWTVYHGAGTRTIASPKGPVIQMYTNVDQDLVGWPAPQGSRSLTPCTCGSSDLYLVTRHADVIPVRRRGDSRGSLLSPRPISYLKGSSGGPLLCPAGHAVGLFRAAVCTRGVTKAVDFIPVENLETTMRSPVFTDNSSPPAVPQSFQVAHLHAPTGSGKSTKVPAAYAAQGYKVLVLNPSVAATLGFGAYMSKAHGVDPNIRTGVRTITTGSPITYSTYGKFLADGGCSGGAYDIIICDECHSTDATSILGIGTVLDQAETAGARLVVLATATPPGSVTVSHPNIEEVALSTTGEIPFYGKAIPLEVIKGGRHLIFCHSKKKCDELAAKLVALGINAVAYYRGLDVSVIPTNGDVVVVSTDALMTGFTGDFDSVIDCNTCVTQTVDFSLDPTFTIETTTLPQDAVSRTQRRGRTGRGKPGIYRFVAPGERPSGMFDSSVLCECYDAGCAWYELMPAETTVRLRAYMNTPGLPVCQDHLEFWEGVFTGLTHIDAHFLSQTKQSGENFPYLVAYQATVCARAQAPPPSWDQMWKCLIRLKPTLHGPTPLLYRLGAVQNEVTLTHPITKYIMTCMSADLEVVTSTWVLVGGVLAALAAYCLSTGCVVIVGRIVLSGKPAIIPDREVLYQEFDEMEEC
Consider B1, for which the figures for the Michaelis-Menten constant (Km) in series [2], in series [3] and in series [4] were 15 µM, 30 µM and 56 µM, respectively. Moreover, the kcat/Km in series [2] was 1200 M⁻¹ s⁻¹; in series [3], 7900 M⁻¹ s⁻¹; in series [4], 1400 M⁻¹ s⁻¹.
